In PMC11842843, “Structural basis for malate-driven, pore lipid-regulated activation of the Arabidopsis vacuolar anion channel ALMT9” (Nature Communications, 2025):

Biological target: the molecule itself
Experiment: cryo-EM structure; purified AtALMT9-sfGFP-HA-H10 in LMNG; three datasets (LMNG + CHS; LMNG + CHS + 10 mM malate; LMNG + 10 mM malate); 20 mM HEPES pH 7.6, 150 mM NaCl, 1 mM TCEP; nine lipid-bound classes

B1: AtALMT9-superfolder GFP (sfGFP)-hemagglutinin (HA) tag-decahistidine (H10) tag (natural protein, Arabidopsis thaliana, UniProt Q9LS46 1-598, looked up)
chain: MAAKQGSFRHGILEKRERLLSNNGFSDFRFTDIESNDLLENENCGRRTRLCCCCSCGNLSEKISGVYDDAKDVARKAWEMGVSDPRKIVFSAKIGLALTIVALLIFYQEPNPDLSRYSVWAILTVVVVFEFTIGATLSKGFNRALGTLSAGGLALGMAELSTLFGDWEEIFCTLSIFCIGFLATFMKLYPSMKAYEYGFRVFLLTYCYILISGFRTGQFIEVAISRFLLIALGAGVSLGVNMFIYPIWAGEDLHNLVVKNFMNVATSLEGCVNGYLRCLEYERIPSKILTYQASEDPVYKGYRSAVESTSQEESLMSFAIWEPPHGPYKSFNYPWKNYVKLSGALKHCAFTVMALHGCILSEIQAPEERRQVFRQELQRVGVEGAKLLRELGEKVKKMEKLGPVDLLFEVHLAAEELQHKIDKKSYLLVNSECWEIGNRATKESEPQELLSLEDSDPPENHAPPIYAFKSLSEAVLEIPPSWGEKNHREALNHRPTFSKQVSWPARLVLPPHLETTNGASPLVETTKTYESASALSLATFASLLIEFVARLQNVVDAFKELSQKANFKEPEIVTTGTDVEFSGERVGLGQKIRRCFGM
notes: cloned into modified pACEBac2-sfGFP-HA-H10; No tag cleavage is described; The final models lack the flexible N-terminus, the C-terminus and two long loops (between H1 and H2, and between H5 and H6); also called ALMT9 from Arabidopsis thaliana; source: Sf9 cells (baculovirus), purified (TALON resin, Superdex 200 increase) in LMNG with or without CHS
stoichiometry N: 2
